# Measurements taken from patent publication US20200087373A1 (UNIVERSITY OF COPENHAGEN, published 2020).
# Ends that are not written are not given here. * marks the point of attachment. C16 diacid = O=C(O)CCCCCCCCCCCCCCC(=O)*
# T1: human GIP receptor (human, UniProt P48546 22-466)
# T1 sequence (looked up): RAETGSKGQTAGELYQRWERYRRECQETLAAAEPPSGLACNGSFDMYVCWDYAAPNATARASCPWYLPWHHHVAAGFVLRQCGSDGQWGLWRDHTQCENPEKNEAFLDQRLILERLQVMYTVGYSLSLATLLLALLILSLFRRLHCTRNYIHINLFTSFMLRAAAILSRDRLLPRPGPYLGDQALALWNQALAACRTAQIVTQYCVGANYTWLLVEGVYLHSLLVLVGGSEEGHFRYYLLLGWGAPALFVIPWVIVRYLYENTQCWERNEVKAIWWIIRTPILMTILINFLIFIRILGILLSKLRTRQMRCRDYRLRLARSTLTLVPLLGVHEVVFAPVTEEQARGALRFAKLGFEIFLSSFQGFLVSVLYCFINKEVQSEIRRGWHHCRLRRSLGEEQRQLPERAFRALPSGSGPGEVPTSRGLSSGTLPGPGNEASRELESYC
# B1: AT309 [hGIP(3-30)NH2[Q20K]-C16diacid/20] (peptide)
# peptide: EGTFISDYSIAMDKIHQK(C16 diacid)DFVNWLLAQK-NH2
# modifications: N-terminus assumed
# SMILES: CC[C@H](C)[C@H](NC(=O)[C@H](CO)NC(=O)[C@H](Cc1ccc(O)cc1)NC(=O)[C@H](CC(=O)O)NC(=O)[C@H](CO)NC(=O)[C@@H](NC(=O)[C@H](Cc1ccccc1)NC(=O)[C@@H](NC(=O)CNC(=O)[C@@H](N)CCC(=O)O)[C@@H](C)O)[C@@H](C)CC)C(=O)N[C@@H](C)C(=O)N[C@@H](CCSC)C(=O)N[C@@H](CC(=O)O)C(=O)N[C@@H](CCCCN)C(=O)N[C@H](C(=O)N[C@@H](Cc1c[nH]cn1)C(=O)N[C@@H](CCC(N)=O)C(=O)N[C@@H](CCCCNC(=O)CCCCCCCCCCCCCCC(=O)O)C(=O)N[C@@H](CC(=O)O)C(=O)N[C@@H](Cc1ccccc1)C(=O)N[C@H](C(=O)N[C@@H](CC(N)=O)C(=O)N[C@@H](Cc1c[nH]c2ccccc12)C(=O)N[C@@H](CC(C)C)C(=O)N[C@@H](CC(C)C)C(=O)N[C@@H](C)C(=O)N[C@@H](CCC(N)=O)C(=O)N[C@@H](CCCCN)C(N)=O)C(C)C)[C@@H](C)CC
# B2: AT310 [hGIP(3-30)NH2[D21K]-C16diacid/21] (peptide)
# peptide: EGTFISDYSIAMDKIHQQK(C16 diacid)FVNWLLAQK-NH2
# modifications: N-terminus assumed
# SMILES: CC[C@H](C)[C@H](NC(=O)[C@H](CO)NC(=O)[C@H](Cc1ccc(O)cc1)NC(=O)[C@H](CC(=O)O)NC(=O)[C@H](CO)NC(=O)[C@@H](NC(=O)[C@H](Cc1ccccc1)NC(=O)[C@@H](NC(=O)CNC(=O)[C@@H](N)CCC(=O)O)[C@@H](C)O)[C@@H](C)CC)C(=O)N[C@@H](C)C(=O)N[C@@H](CCSC)C(=O)N[C@@H](CC(=O)O)C(=O)N[C@@H](CCCCN)C(=O)N[C@H](C(=O)N[C@@H](Cc1c[nH]cn1)C(=O)N[C@@H](CCC(N)=O)C(=O)N[C@@H](CCC(N)=O)C(=O)N[C@@H](CCCCNC(=O)CCCCCCCCCCCCCCC(=O)O)C(=O)N[C@@H](Cc1ccccc1)C(=O)N[C@H](C(=O)N[C@@H](CC(N)=O)C(=O)N[C@@H](Cc1c[nH]c2ccccc12)C(=O)N[C@@H](CC(C)C)C(=O)N[C@@H](CC(C)C)C(=O)N[C@@H](C)C(=O)N[C@@H](CCC(N)=O)C(=O)N[C@@H](CCCCN)C(N)=O)C(C)C)[C@@H](C)CC
# B3: AT311 [hGIP(3-30)NH2[F22K]-C16diacid/22] (peptide)
# peptide: EGTFISDYSIAMDKIHQQDK(C16 diacid)VNWLLAQK-NH2
# modifications: N-terminus assumed
# SMILES: CC[C@H](C)[C@H](NC(=O)[C@H](CO)NC(=O)[C@H](Cc1ccc(O)cc1)NC(=O)[C@H](CC(=O)O)NC(=O)[C@H](CO)NC(=O)[C@@H](NC(=O)[C@H](Cc1ccccc1)NC(=O)[C@@H](NC(=O)CNC(=O)[C@@H](N)CCC(=O)O)[C@@H](C)O)[C@@H](C)CC)C(=O)N[C@@H](C)C(=O)N[C@@H](CCSC)C(=O)N[C@@H](CC(=O)O)C(=O)N[C@@H](CCCCN)C(=O)N[C@H](C(=O)N[C@@H](Cc1c[nH]cn1)C(=O)N[C@@H](CCC(N)=O)C(=O)N[C@@H](CCC(N)=O)C(=O)N[C@@H](CC(=O)O)C(=O)N[C@@H](CCCCNC(=O)CCCCCCCCCCCCCCC(=O)O)C(=O)N[C@H](C(=O)N[C@@H](CC(N)=O)C(=O)N[C@@H](Cc1c[nH]c2ccccc12)C(=O)N[C@@H](CC(C)C)C(=O)N[C@@H](CC(C)C)C(=O)N[C@@H](C)C(=O)N[C@@H](CCC(N)=O)C(=O)N[C@@H](CCCCN)C(N)=O)C(C)C)[C@@H](C)CC
# B4: AT312 [hGIP(3-30)NH2[V23K]-C16diacid/23] (peptide)
# peptide: EGTFISDYSIAMDKIHQQDFK(C16 diacid)NWLLAQK-NH2
# modifications: N-terminus assumed
# SMILES: CC[C@H](C)[C@H](NC(=O)[C@H](CO)NC(=O)[C@H](Cc1ccc(O)cc1)NC(=O)[C@H](CC(=O)O)NC(=O)[C@H](CO)NC(=O)[C@@H](NC(=O)[C@H](Cc1ccccc1)NC(=O)[C@@H](NC(=O)CNC(=O)[C@@H](N)CCC(=O)O)[C@@H](C)O)[C@@H](C)CC)C(=O)N[C@@H](C)C(=O)N[C@@H](CCSC)C(=O)N[C@@H](CC(=O)O)C(=O)N[C@@H](CCCCN)C(=O)N[C@H](C(=O)N[C@@H](Cc1c[nH]cn1)C(=O)N[C@@H](CCC(N)=O)C(=O)N[C@@H](CCC(N)=O)C(=O)N[C@@H](CC(=O)O)C(=O)N[C@@H](Cc1ccccc1)C(=O)N[C@@H](CCCCNC(=O)CCCCCCCCCCCCCCC(=O)O)C(=O)N[C@@H](CC(N)=O)C(=O)N[C@@H](Cc1c[nH]c2ccccc12)C(=O)N[C@@H](CC(C)C)C(=O)N[C@@H](CC(C)C)C(=O)N[C@@H](C)C(=O)N[C@@H](CCC(N)=O)C(=O)N[C@@H](CCCCN)C(N)=O)[C@@H](C)CC
# B5: AT313 [hGIP(3-30)NH2[N24K]-C16diacid/24] (peptide)
# peptide: EGTFISDYSIAMDKIHQQDFVK(C16 diacid)WLLAQK-NH2
# modifications: N-terminus assumed
# SMILES: CC[C@H](C)[C@H](NC(=O)[C@H](CO)NC(=O)[C@H](Cc1ccc(O)cc1)NC(=O)[C@H](CC(=O)O)NC(=O)[C@H](CO)NC(=O)[C@@H](NC(=O)[C@H](Cc1ccccc1)NC(=O)[C@@H](NC(=O)CNC(=O)[C@@H](N)CCC(=O)O)[C@@H](C)O)[C@@H](C)CC)C(=O)N[C@@H](C)C(=O)N[C@@H](CCSC)C(=O)N[C@@H](CC(=O)O)C(=O)N[C@@H](CCCCN)C(=O)N[C@H](C(=O)N[C@@H](Cc1c[nH]cn1)C(=O)N[C@@H](CCC(N)=O)C(=O)N[C@@H](CCC(N)=O)C(=O)N[C@@H](CC(=O)O)C(=O)N[C@@H](Cc1ccccc1)C(=O)N[C@H](C(=O)N[C@@H](CCCCNC(=O)CCCCCCCCCCCCCCC(=O)O)C(=O)N[C@@H](Cc1c[nH]c2ccccc12)C(=O)N[C@@H](CC(C)C)C(=O)N[C@@H](CC(C)C)C(=O)N[C@@H](C)C(=O)N[C@@H](CCC(N)=O)C(=O)N[C@@H](CCCCN)C(N)=O)C(C)C)[C@@H](C)CC
# B6: AT314 [hGIP(3-30)NH2[W25K]-C16diacid/25] (peptide)
# peptide: EGTFISDYSIAMDKIHQQDFVNK(C16 diacid)LLAQK-NH2
# modifications: N-terminus assumed
# SMILES: CC[C@H](C)[C@H](NC(=O)[C@H](CO)NC(=O)[C@H](Cc1ccc(O)cc1)NC(=O)[C@H](CC(=O)O)NC(=O)[C@H](CO)NC(=O)[C@@H](NC(=O)[C@H](Cc1ccccc1)NC(=O)[C@@H](NC(=O)CNC(=O)[C@@H](N)CCC(=O)O)[C@@H](C)O)[C@@H](C)CC)C(=O)N[C@@H](C)C(=O)N[C@@H](CCSC)C(=O)N[C@@H](CC(=O)O)C(=O)N[C@@H](CCCCN)C(=O)N[C@H](C(=O)N[C@@H](Cc1c[nH]cn1)C(=O)N[C@@H](CCC(N)=O)C(=O)N[C@@H](CCC(N)=O)C(=O)N[C@@H](CC(=O)O)C(=O)N[C@@H](Cc1ccccc1)C(=O)N[C@H](C(=O)N[C@@H](CC(N)=O)C(=O)N[C@@H](CCCCNC(=O)CCCCCCCCCCCCCCC(=O)O)C(=O)N[C@@H](CC(C)C)C(=O)N[C@@H](CC(C)C)C(=O)N[C@@H](C)C(=O)N[C@@H](CCC(N)=O)C(=O)N[C@@H](CCCCN)C(N)=O)C(C)C)[C@@H](C)CC
# B7: AT315 [hGIP(3-30)NH2[L26K]-C16diacid/26] (peptide)
# peptide: EGTFISDYSIAMDKIHQQDFVNWK(C16 diacid)LAQK-NH2
# modifications: N-terminus assumed
# SMILES: CC[C@H](C)[C@H](NC(=O)[C@H](CO)NC(=O)[C@H](Cc1ccc(O)cc1)NC(=O)[C@H](CC(=O)O)NC(=O)[C@H](CO)NC(=O)[C@@H](NC(=O)[C@H](Cc1ccccc1)NC(=O)[C@@H](NC(=O)CNC(=O)[C@@H](N)CCC(=O)O)[C@@H](C)O)[C@@H](C)CC)C(=O)N[C@@H](C)C(=O)N[C@@H](CCSC)C(=O)N[C@@H](CC(=O)O)C(=O)N[C@@H](CCCCN)C(=O)N[C@H](C(=O)N[C@@H](Cc1c[nH]cn1)C(=O)N[C@@H](CCC(N)=O)C(=O)N[C@@H](CCC(N)=O)C(=O)N[C@@H](CC(=O)O)C(=O)N[C@@H](Cc1ccccc1)C(=O)N[C@H](C(=O)N[C@@H](CC(N)=O)C(=O)N[C@@H](Cc1c[nH]c2ccccc12)C(=O)N[C@@H](CCCCNC(=O)CCCCCCCCCCCCCCC(=O)O)C(=O)N[C@@H](CC(C)C)C(=O)N[C@@H](C)C(=O)N[C@@H](CCC(N)=O)C(=O)N[C@@H](CCCCN)C(N)=O)C(C)C)[C@@H](C)CC
# Target: T1, human GIP receptor
# Assay: cell-based or functional assay
binder,measurement,value
B1,"cAMP antagonism, log (IC50)",-7.4 log M
same,"cAMP antagonism, nM (IC50)",36 nM
B2,"cAMP agonism, EC50 (log)",-7.4 log M
same,"cAMP agonism, Emax",6.2%
same,"cAMP agonism, nM (EC50)",39 nM
same,"cAMP antagonism, log (IC50)",-7.3 log M
same,"cAMP antagonism, nM (IC50)",49 nM
B3,"cAMP agonism, EC50 (log)",-6.1 log M
same,"cAMP agonism, Emax",17.5%
same,"cAMP agonism, nM (EC50)",784 nM
same,"cAMP antagonism, log (IC50)",-6 log M
same,"cAMP antagonism, nM (IC50)",923 nM
B4,"cAMP agonism, EC50 (log)",-5.4 log M
same,"cAMP agonism, Emax",54%
same,"cAMP agonism, nM (EC50)",4080 nM
B5,"cAMP agonism, EC50 (log)",-7 log M
same,"cAMP agonism, Emax",7.2%
same,"cAMP agonism, nM (EC50)",97 nM
same,"cAMP antagonism, log (IC50)",-6.5 log M
same,"cAMP antagonism, nM (IC50)",348 nM
B6,"cAMP agonism, EC50 (log)",-7.2 log M
same,"cAMP agonism, Emax",28.4%
same,"cAMP agonism, nM (EC50)",62 nM
same,"cAMP antagonism, log (IC50)",-7 log M
same,"cAMP antagonism, nM (IC50)",101 nM
B7,"cAMP agonism, EC50 (log)",-6.7 log M
same,"cAMP agonism, Emax",5.9%
same,"cAMP agonism, nM (EC50)",183 nM
same,"cAMP antagonism, log (IC50)",-6.3 log M
same,"cAMP antagonism, nM (IC50)",556 nM
